{"source": "patent US12422438B2", "about": "“Means and methods for single molecule peptide sequencing” (VIB VZW, priority 2017, dated 2025)", "key": {"[1]": {"experiment": "Organic solvent tolerance of aminopeptidase T, activity with L-leucine-p-nitroanilide substrate", "type": "biochemical", "experimental": "(§1) FIG. 12. Organic solvent tolerance of aminopeptidase T from T. aquaticus. A. The activity of aminopeptidase T was measured with L-leucine-p-nitroanilide substrate. Enzyme and substrate were incubated for 3 h at 40° C. in 50 mM TrisHCl (pH 8) containing different concentrations of the organic solvents acetonitrile (ACN), methanol (MeOH) and ethanol (EtOH). B. Circular dichroism analysis of aminopeptidase T secondary structure in 0% versus 50% MeOH (in 10 mM dipotassium phosphate buffer (K2HPO4)). C. Enzyme activity in varying concentrations of MeOH in buffer (50 mM TrisHCl, pH 8) versus deionized water (MilliQ).\n(§2) It is well-known in the art that this can be achieved by solvents (such as methanol) or high temperatures. When these harsh conditions are needed, the aminopeptidases used should tolerate solvents and/or high temperatures. […] At higher organic solvent concentrations, activity can still be detected, albeit lower. […] Furthermore, the enzyme appears to be fully active in deionized (MS grade) water, which might be advantageous when the enzyme will be used with ultra-sensitive chip technology (e.g. electrical biosensor such as field effect transistors) (FIG. 12C)."}, "[2]": {"experiment": "Circular dichroism analysis of aminopeptidase T secondary structure", "type": "physicochemical", "details": "0% methanol versus 50% methanol, 10 mM K2HPO4", "experimental": "as §1, §2"}, "[3]": {"experiment": "Peptidase assay with L-leucine-p-nitroaniline of purified enzyme", "type": "biochemical", "details": "70° C., PBS buffer", "experimental": "A peptidase assay with L-leucine-p-nitroaniline (140 μl PBS buffer, 30 μl 24 mM L-leucine-p-nitroaniline in MeOH and 10 μl purified Tag-APT) confirmed the presence of the active (amino) peptidase, with thermophilic properties (activity at Taq optimum of 70° C.) (FIG. 8)."}, "[4]": {"molecular_target": "T1, T. aquaticus aminopeptidase T (Thermus aquaticus, UniProt P23341)", "T1 construct": "6xHis (C); made in house; host or cells: E. coli BL21(DE3), pET24b(+)", "T1 sequence (P23341 with tags, fused parts or gaps)": "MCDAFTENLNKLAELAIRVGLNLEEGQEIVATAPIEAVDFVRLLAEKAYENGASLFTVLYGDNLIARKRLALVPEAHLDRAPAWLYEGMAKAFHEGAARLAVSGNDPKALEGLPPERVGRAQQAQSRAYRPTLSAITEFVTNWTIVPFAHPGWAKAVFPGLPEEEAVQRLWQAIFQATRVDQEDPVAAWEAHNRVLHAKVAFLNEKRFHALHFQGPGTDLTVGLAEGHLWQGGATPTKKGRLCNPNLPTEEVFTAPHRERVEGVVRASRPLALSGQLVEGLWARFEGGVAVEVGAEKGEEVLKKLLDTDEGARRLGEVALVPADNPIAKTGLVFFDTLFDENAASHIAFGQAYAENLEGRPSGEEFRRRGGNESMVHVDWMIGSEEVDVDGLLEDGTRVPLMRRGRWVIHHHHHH", "experiment": "Aminopeptidase assay with different amino acid p-nitroanilide substrates at 40° C. and 80° C.", "type": "biochemical", "details": "FIG. 11", "experimental": "FIG. 11. Aminopeptidase assay with different amino acid p-nitroanilide substrates. Enzyme and substrate (1.5 mM) were incubated for 2 h at 40° C. or 80° C. in PBS, after which the released p-nitroanilide was quantified by measuring the absorbance at 405 nm.\nAs described herein and in line with the invention described in current application, the activity differs between different amino acids. At 80° C., the panel of amino acid substrates can be roughly divided in fast-cleaved (L, M, Y, R, F) and slow-cleaved (D, P) substrates. However, at 40° C. it seems like the panel is divided in fast-cleaved (Y, R) and slow-cleaved (D, P), and substrates that lie in between (L, M, F). […] Finally, TagAPT is not only active in the p-nitroanilide assay. […] The N-terminal amino acid from peptides with proline at the second position is not easily cleaved since peptide bonds adjacent to the amino acid proline are resistant to cleavage by most peptidases (Iyver et al. 2015 FEBS Open Bio. 2015 Apr. 2; 5:292-302). In contrast to what Is stated in Minagawa et al (1988 Agricultural and Biological Chemistry 52:1755-1763) we show here that T. aquaticus aminopeptidase T can cleave N-terminal amino acids even when proline is at the second position. This surprising finding greatly enhances the generic use of Tag-APT in the method and uses disclosed in current application and in single molecule peptide sequencing in general."}, "[5]": {"experiment": "L-leucine-p-nitroanilide activity check after labeling with maleimide-DyLight650", "type": "biochemical", "details": "N-terminal cysteine labeled with DyLight650", "description": "FIG. 13. Site-specific fluorescent labeling of aminopeptidase T. A. SDS-PAGE analysis of aminopeptidase T after labeling the N-terminal cysteine with an equimolar and a 1×, 10×, 100× and 1000× molar excess of maleimide-DyLight650. Aminopeptidase T was visualized with fluorescence (DyLight650 label) and coomassie (total protein). B. Aminopeptidase T activity check with L-leucine-p-nitroanilide after labeling with maleimide-DyLight650.\nRecombinant Taq aminopeptidase containing an extra N-terminal cysteine, was incubated overnight with the fluorescent maleimide-DyLight650 probe in the presence of the reducing agent TCEP (10 mM). Maleimide-DyLight650 was added in equimolar concentration, and in 10×, 100× and 1000× excess molar concentration. After separating the aminopeptidase with SDS-PAGE, it was visualized using a Coomassie stain, as well as with fluorescence to evaluate protein labeling with DyLight650."}}, "data": [{"molecule": "aminopeptidase T from T. aquaticus: aminopeptidase T from Thermus aquaticus, Cys added at the N-terminus and 6×His at the C-terminus, SEQ ID No. 8 (protein, labeled TaqAPT) MCDAFTENLNKLAELAIRVGLNLEEGQEIVATAPIEAVDFVRLLAEKAYENGASLFTVLYGDNLIARKRLALVPEAHLDRAPAWLYEGMAKAFHEGAARLAVSGNDPKALEGLPPERVGRAQQAQSRAYRPTLSAITEFVTNWTIVPFAHPGWAKAVFPGLPEEEAVQRLWQAIFQATRVDQEDPVAAWEAHNRVLHAKVAFLNEKRFHALHFQGPGTDLTVGLAEGHLWQGGATPTKKGRLCNPNLPTEEVFTAPHRERVEGVVRASRPLALSGQLVEGLWARFEGGVAVEVGAEKGEEVLKKLLDTDEGARRLGEVALVPADNPIAKTGLVFFDTLFDENAASHIAFGQAYAENLEGRPSGEEFRRRGGNESMVHVDWMIGSEEVDVDGLLEDGTRVPLMRRGRWVIHHHHHH", "values": [{"measurement": "acetonitrile concentration up until which enzyme remains completely active", "setting": "[1]; acetonitrile, 3 h at 40° C., 50 mM TrisHCl (pH 8)", "result": "≤ 33", "unit": "%"}, {"measurement": "enzyme activity in deionized (MS grade) water", "setting": "[1]; deionized water (MilliQ) versus buffer", "result": "fully active"}, {"measurement": "ethanol concentration up until which enzyme remains completely active", "setting": "[1]; ethanol, 3 h at 40° C., 50 mM TrisHCl (pH 8)", "result": "≤ 33", "unit": "%"}, {"measurement": "methanol concentration up until which enzyme remains completely active", "setting": "[1]; methanol, 3 h at 40° C., 50 mM TrisHCl (pH 8)", "result": "≤ 50", "unit": "%"}, {"measurement": "structural differences by circular dichroism (CD)", "setting": "[2]", "result": "no structural differences were observed"}, {"measurement": "peptidase activity with L-leucine-p-nitroaniline", "setting": "[3]", "result": "active"}, {"measurement": "cleavage of dipeptides with a proline at the second position", "setting": "[4]", "result": "cleaves dipeptides even with a proline at the second position"}, {"measurement": "function after labeling with maleimide-DyLight650", "setting": "[5]", "result": "does not jeopardize its function"}]}]}
